According to article PMC4714757, “Leishmania infantum Asparagine Synthetase A Is Dispensable for Parasites Survival and Infectivity” (PLoS Neglected Tropical Diseases, 2016):

Assays:
[1] = target: Leishmania infantum asparagine synthetase A, recombinant, poly-His-tagged (Leishmania infantum); assay: SEC; analytic size exclusion chromatography of purified recombinant LiAS-A on Superose 12 10/300GL, calibrated with standards (Kav against Log MW and Log Stokes radius); oligomeric state of the native protein
[2] = substrate: N[C@@H](CC(=O)O)C(=O)O; assay: colorimetric assay of Asn formation, steady state; assay type: biochemical, Leishmania infantum; conditions: other substrates in excess, 8.4 mM Mg2+, 85 mM Tris.HCl pH 7.6, 37°C
From the text: (§1) colorimetric assay of Asn formation, steady state on LiAS-A (Leishmania infantum asparagine synthetase A)

[3] = substrate: NC(=O)CC[C@H](N)C(=O)O; assay: colorimetric assay of Asn formation, steady state; assay type: biochemical, Leishmania infantum; conditions: glutamine as nitrogen donor, other substrates in excess, 8.4 mM Mg2+, 85 mM Tris.HCl pH 7.6, 37°C
From the text: as §1

[4] = substrate: Nc1ncnc2c1ncn2[C@@H]1O[C@H](COP(=O)(O)OP(=O)(O)OP(=O)(O)O)[C@@H](O)[C@H]1O; assay: colorimetric assay of Asn formation, steady state; assay type: biochemical, Leishmania infantum; conditions: other substrates in excess, 8.4 mM Mg2+, 85 mM Tris.HCl pH 7.6, 37°C
From the text: as §1

Row | Molecule | stoichiometry N [1] | Km [2] [µM] | kcat [2] [s⁻¹] | Km [3] [µM] | kcat [3] [s⁻¹] | Km [4] [µM] | kcat [4] [s⁻¹]
1 | Leishmania infantum asparagine synthetase A, recombinant, poly-His-tagged (enzyme) | 2 |  |  |  |  |  | 
2 | LiAS-A (Leishmania infantum asparagine synthetase A) (Leishmania infantum) (protein, full length, 353 residues, N-terminal 6xHis tag (pET28a) with no cleavage stated, E. coli BL21(DE3)) MSSSPQEYIDLQTRILRVKTIFAEELASALNLIQVECPMLACVGDGTQDNLSGVEKAVQVHVKEIPGANYEVVHSLAKWKRMTLGNHRFPVGRGIFTNMRALRVEETLDNIHSVYVDQWDWERVIAPADRCLEYLQATVRSLYEVLRETESRLCTEFPDIAPILPDSIKFVHTEQLLKRYPELDPKSREREAVKKLGAVFLIGIGCKLSHGDHHDVRAPDYDDWSSPVSVDSSKIGFPTADDEKPSVNTIMSLQGLNGDILVYNPVLDDVLELSSMGIRVDQEALRRQLEITGTSDRLQCRWHQCVLNGDLPQTIGGGIGQSRTVMFMLRKRHIGEVQCSVWPHEVTAQYSLL |  | 6210 ± 1150 | 9.19 ± 0.69 | 1710 ± 280 | 4.51 ± 0.19 | 1470 ± 40 | 4.18 ± 0.02
